Measurements taken from US20040259096A1, “Receptor capture assay” (priority 2001, published 2004).

Tests used:
HIF-1α = assay: Detecting HIF-1α activation in cytosolic extracts of HeLa S3 cells, anti-ARNT capture, real-time PCR; format: cell-based, human
Method: HIF-1 DNA binding activity was induced as follows. Actively dividing HeLa S3 cells were treated with 125 μM CoCl2 for 4 hr at 37° C. Cells were washed 2× in tissue culture dishes with ice cold phosphate-buffered saline (PBS) before harvesting. Cells were pelleted at 420×g for 5 min, washed twice with PBS and resuspended in 5 packed cell volumes of buffer A (10 mM Tris-HCl (pH 7.6), 1.5 mM MgCl2, 10 mM KCl, 1 mM DTT) supplemented with Sigma protease inhibitor cocktail (P 8340, Sigma Chemical Co., St. Louis, Mo.). After incubation on ice for 15 min, cells were pelleted at 450×g for 5 min, resuspended in 2 packed cell volumes of buffer C (0.42 M KCl, 20 mM Tris-HCl (pH 7.6), 20% glycerol, 1.5 MM MgCl2, 1 mM DTT and 0.2 mM EDTA) supplemented with Sigma protease inhibitor cocktail. The cells were disrupted using a Branson Sonifier 450 (Branson Ultrasonics Corp., Danbury, Conn.) fitted with a microtip for two 20-second pulses at a 45% duty cycle. After centrifugation at 20,000×g for 5 min, the supernatant was designated as cytosolic extract. The cytosolic extracts from treated and untreated cells were aliquoted and stored at −80° C. […]
Primers PRIHa and PRIHb (0.9 μM final) were added to 2×PCR SYBR® Green Master Mix (Applied Biosystems Cat No. 4309155) and the Master Mix made 1× with Water. […] 50 μl of master mix from each well was transferred to a PCR plate, capped and analyzed by real-time PCR using an Opticon thermocycler (MJ Research, Inc., Watham, Mass.). […]
In brief cytosolic extracts prepared from untreated or CoCl2 treated cells were diluted and exposed to nucleic acid-tracer. […] DNA amplification was monitored using real-time PCR. The process takes only a few hours to complete and provides qualitative or quantitative results.
The PCR data is typically plotted as a primary growth curve. For quantitative and comparative purposes, a threshold cycle (Ct) is defined for each sample. […] The Ct value is typically calculated near the first cycle where the PCR products are amplified at the greatest rate (no reagent is limiting) and where the amplified product is detectable above background. […]

Estrogen receptor alpha [1] = target: T1, Estrogen receptor alpha (Homo sapiens, UniProt P03372 P03372:1-595); assay: anti-ER capture PCR; DMSO 137, estradiol […]; 25 mM Tris pH 8.0, 50 mM KCl, 4 C; ligand independent; conditions: tags: baculovirus expressed, Panvera P2187; chain copies: 2
T1 sequence (P03372 whole entry, one chain of several): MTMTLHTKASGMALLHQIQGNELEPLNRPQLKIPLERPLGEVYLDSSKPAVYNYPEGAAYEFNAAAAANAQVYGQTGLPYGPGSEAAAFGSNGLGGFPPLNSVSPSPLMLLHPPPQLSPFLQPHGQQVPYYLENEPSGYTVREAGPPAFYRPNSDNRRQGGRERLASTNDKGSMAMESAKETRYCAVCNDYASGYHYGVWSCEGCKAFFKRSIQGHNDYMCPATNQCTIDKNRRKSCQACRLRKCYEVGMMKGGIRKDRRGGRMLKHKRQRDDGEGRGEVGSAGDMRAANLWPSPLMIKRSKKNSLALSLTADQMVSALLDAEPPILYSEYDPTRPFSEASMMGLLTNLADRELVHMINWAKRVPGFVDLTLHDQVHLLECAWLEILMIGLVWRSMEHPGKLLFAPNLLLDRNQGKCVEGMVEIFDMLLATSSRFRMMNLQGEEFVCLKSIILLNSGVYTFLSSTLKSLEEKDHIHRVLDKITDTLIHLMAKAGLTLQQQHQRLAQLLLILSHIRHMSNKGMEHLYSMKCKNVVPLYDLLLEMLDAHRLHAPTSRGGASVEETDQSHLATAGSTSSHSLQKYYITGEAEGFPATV

Estrogen receptor alpha [2] = target: T1, Estrogen receptor alpha; assay: competition; 100-fold excess reduces tracer signal 104 to 81; conditions: tags: baculovirus expressed, Panvera P2187; chain copies: 2
Glucocorticoid receptor [3] = target: T2, Glucocorticoid receptor (UniProt P04150 P04150:1-777); assay: anti-GR capture PCR; DMSO 82, dexamethasone 68; 25 mM Tris pH 7.9, 60 mM KCl, 4 C; ligand independent; conditions: tags: baculovirus expressed, Panvera P2187 (so in the source)
T2 sequence (P04150 whole entry, one chain of several): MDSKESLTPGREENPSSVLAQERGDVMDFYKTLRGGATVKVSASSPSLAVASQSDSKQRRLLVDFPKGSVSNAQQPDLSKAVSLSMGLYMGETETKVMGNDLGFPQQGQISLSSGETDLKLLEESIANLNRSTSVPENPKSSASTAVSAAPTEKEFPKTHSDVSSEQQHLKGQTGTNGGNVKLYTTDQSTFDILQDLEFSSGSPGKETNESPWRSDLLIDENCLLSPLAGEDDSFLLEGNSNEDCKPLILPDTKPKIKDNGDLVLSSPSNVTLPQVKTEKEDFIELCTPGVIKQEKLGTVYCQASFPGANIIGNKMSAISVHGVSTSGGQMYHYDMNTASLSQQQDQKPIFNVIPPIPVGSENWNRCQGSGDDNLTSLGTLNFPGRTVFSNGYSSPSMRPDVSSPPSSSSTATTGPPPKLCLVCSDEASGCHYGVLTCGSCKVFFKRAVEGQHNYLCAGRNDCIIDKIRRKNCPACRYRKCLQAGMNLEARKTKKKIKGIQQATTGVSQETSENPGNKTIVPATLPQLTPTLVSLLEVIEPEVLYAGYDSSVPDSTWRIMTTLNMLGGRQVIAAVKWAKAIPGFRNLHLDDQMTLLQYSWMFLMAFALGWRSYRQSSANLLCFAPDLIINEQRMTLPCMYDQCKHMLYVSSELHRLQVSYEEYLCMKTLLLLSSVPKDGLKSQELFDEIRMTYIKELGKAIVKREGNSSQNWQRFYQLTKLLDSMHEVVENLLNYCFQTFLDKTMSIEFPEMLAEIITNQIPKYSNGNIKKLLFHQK

Glucocorticoid receptor [4] = target: T2, Glucocorticoid receptor; assay: competition; 100-fold excess reduces tracer signal 68 to 44; conditions: tags: baculovirus expressed, Panvera P2187 (so in the source)

[Cl][Co][Cl] [CoCl2, cobalt chloride]
Ct Value (HIF-1α; cytosol of treated cells (CoCl2), plus 100x DNA competitor): 22.52
Ct Value (HIF-1α; cytosol of treated cells (CoCl2, 4 hr), no DNA competitor, untreated 23.08): 20.47
difference of Ct values, treated versus untreated cytosolic preparations (HIF-1α; no DNA competitor): more than 2.60 units

B1: ERE tracer (VER1/VER2) (dsDNA)
DNA 1: CAACTTCATCCACGTTCACCGTCCAAAGTCAGGTCACAGTGACCTGATCAAAGTTGTACCTGTCCTTGGCTCTTC
DNA 2: GAAGAGCCAAGGACAGGTACAACTTTGATCAGGTCACTGTGACCTGACTTTGGACGGTGAACGTGGATGAAGTTG
binding result (Estrogen receptor alpha [1]): binds

B2: competitor ERE (DX1/DX3) (dsDNA)
DNA 1: CTAGAAAGTCAGGTCACAGTGACCTG
DNA 2: CAGGTCACTGTGACCTGACTTTCTAG
binding result (Estrogen receptor alpha [2]): binds

B3: GRE tracer (BGGR1/BGGR2) (dsDNA)
DNA 1: CAACTTCATCCACGTTCACCGCTGTACAGGATGTTCTGCCGTACCTGTCCTTGGCTCTTC
DNA 2: GAAGAGCCAAGGACAGGTACGGCAGAACATCCTGTACAGCGGTGAACGTGGATGAAGTTG
binding result (Glucocorticoid receptor [3]): binds

B4: competitor GRE (TGR1/TGR2) (dsDNA)
DNA 1: GCTGTACAGGATGTTCTGCC
DNA 2: GGCAGAACATCCTGTACAGC
binding result (Glucocorticoid receptor [4]): binds
